Data: a protein production outcome set (Wang et al. 2014)

Assay: label from the status in PepcDB records
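Also: failed if final PepcDB status was selected cloned or expressed and not failed if soluble or beyond.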

Sequence | protein production
MQFIKRAHGEEQPYWPAGPFKIRLPFVHYRWELPEMIQGFFMFVVGLAMIPLLESYLGMPYEAALAFTFVAGVGYILPALLGVPLVPGWITPAIPVVLLYLKGFEPGPEAIRALFALQIEVAIIFLILGATRLGSKLVDVIPNSLKCGIIIGAGMAAMMGELKIGGRIDATPISLIVGSIISAYILFSLSFKNVINENSFARKIANFGMVPGMIIAMLVGWTVGEYPLPDIKWGITNPDFSLMWQYLPFTVGYPDWEIFLLAIPTALIAYVIAFGDILVGFTLVNRVDHIRKDEKIEENVDRVHLVTAIRNGFHAFLAPWPGLAGPLWTAAHATVAERYAMGRKSMESIYSGGGTFWMSGLLALFALPLVTLFKPVLPIALSLTLVLTAYICIMVGMEQLKNSTERGVAGIVAVTLAMPDPKSTMYAVCIGVILYFLIERPRLMGKHNSEDNIIFADETQEEVAVTNSNNT | failed
MQFIYSIIGILLVLGIVYAISFNRKSVSLSLIGKALIVQFIIALILVRIPLGQQVVSVVSTGVTKVINCGQAGLNFVFGSLADSGAKTGFIFAIQTLGNIVFLSALVSLLYYVGILGFVVKWIGKGVGKIMKSSEVESFVAVANMFLGQTDSPILVSKYLGRMTDSEIMVVLVSGMGSMSVSILGGYIALGIPMEYLLIASTMVPIGSILIAKILLPQTEPVQKIDDIKMDNKGNNANVIDAIAEGASTGAQMAFSIGASLIAFVGLVSLINMMLSGLGIRLEQIFSYVFAPFGFLMGFDHKNILLEGNLLGSKLILNEFVSFQQLGDLIKSLDYRTALVATISLCGFANLSSLGICVSGIAVLCPEKRGTLARLVFRAMIGGIAVSMLSAFIVGIVTLF | failed
MQGADADTVADALASDDALPGAGGFAGELDGTLVRDVLGRYPLFVERAVSDEARLDPGQWSHDPTALADPRSFPAGHIRNESGTQQRWSLPSLDPFGDRETAIETVGETVETSIDAVDTDSLAIAFSGGVDSALLAARLDAPLYVAGFPDSHDIEAARSAAELLGTEVRVVELTHDAIERAVPEIARATARTNAMDVQIALPLYLVAERVAGDGFDRLALGQGADELFGGYAKVAKAPEDPRVEADTVRGAQREVIASLPDQLERDVLALRAAGVEPVTPLLHDRVIGAALRLDGDLLVDGETRKVALRAAARESLPDEIADRDKKAAQYGSLAARELDRLARQAGYKRRMDDHVTQYVESLVE | failed
MQGAGRLMQPRPDSAFVHDVRVTWGDCDPAKIAYTGHLPRFALEAIDAWWSEYHGPGGWYHLELDTNVGTPFVRLEMDFKSPVTPRHILKCHTWPTRLGTKSITFRVDGVQDGVTCFVGAFTCVFTIADQFKSQPAPDHLRALIEPHIPA | not failed
MQGQEDEVVLVEGPTLPETPRLFPLKIRCRADLVRLPLRMSEPLQSVVDHMATHLGVSPSRILLLFGETELSPTATPRTLKLGVADIIDCVVLTSS | not failed
MQGTKIRLMVGGLLLAAASNNVQAEALQPDPAWQQGKLDNGFSWQLLATPQRPSDRIELRLIVNTGSLSENTQEVGFAHLLPRLALMSSASFTPAQLQSLWQQGIDNERPLPPAITSYDFTLYSLSLPNNRPDLLKDALAWLSDTAGNLAVSEQTVNAALNTATDPIATFPQNIQEPWWRYRLKGSSLIGHDPGQPVTQPVDVEKLKQFYQQWYTPDAMTLYVVGNVDSRSIAAQISKAFSELKGKRTAPAAVATLAPLPPEPVSLMNEQAAQDTLSLMWDTPWHPIQDSMALSRYWRSDLAREALFWHIKQVLEKNNQKNLKLGFDCRVQYQRAQCAIHLNTPVENLTANMTFVARELAALRANGLSQAEFDALMTQKNDQLSKLFATYARTDTDILMSQRLRSQQSGVVDIAPEQYQKLRQAFLSGLTLAELNRELKQQLSQDTTLVLMQPKGEPEVNVKALQEIYNGIMAPQTVAEEEVAPAEAVETAPVMPTTAQ | failed
MQGVLLALVPMFAWGSIGFVANKFGGDAKQQTLGMTLGAFVFALIVFLFRMPTLTWQIFLIGFIGGLLWAIGQFGQFNSMKYMGVSVASPLSSGSQLVIGGLIGVFAFHEWTKQIQFILGFIAMAVLVVGFYFSAKRDPENAVVEEGRNYTKGLTALTYSTLGYVIYVILFNNLAVLWFNVHFDTLTIILPMSVGMIFGALVMGRFKIKMEKYVYQNMIVGAMWGVGNIFMLMAASAAGNAIAFSFSQLGVIVSTIGGILFLGEKKTKKELVYVGIGIVLFVTGAILLAIVKSKG | failed
MQHGARHRWGLTSGYRPGSGRRPGPSAVVAVAAFALVVASQGAAVARPAQAAAADREFASSFESGEPAPDWLSTVDTAADGSKRASGVDGGYSTGIPGNVTDHVTDVRAGAENTGAGEVKENLVDGESSTKWLTFTPTGWAEFDLDAPVKLVTYALTSANDADERDPADWTLQGSTDGKDWKTLDTRTGESFAERFQTKSYDLASPAEYQHFRLDITKNHGADLLQLADVQFSTGGTSDPAPKDMLSLVDRGPSGSPTAKAGAGFTGKRALRYAGTHKADARAYSYNKVFDVNVGVGRDTELSYRIFPSMADKDRDYDATNVSVDLVFTDGTYLSDLKATDQHGFALTPQGQGAAKILYVNQWNNVVSRIGSVAAGRTVDRILVAYDSPKGPAKFRGWLDDIALKAAPPEKPKAHLSDYALTTRGTNSSSGFSRGNNFPATAVPHGFNFWTPVTNAGSLSWLYDYARSNNADNLPTIQAFSASHEPSPWMGDRQTFQVMPSAASGTPDTGRTARALAFRHENETARPYYYGVTFENGLKAEMAPTDHAAALRFTYPGDDASVLFDNVTDQAGLTLDKEHGIVTGYSDVKSGLSTGATRLFVYGVFDAPVKEGASSGVKGYLRFAPGADHTVTLRLATSLISVDQAKDNLGQEIPDGTSFTTVKNRAQQQWDKLLGKVEVEGATPDQLTTLYSSMYRLYLYPNSGFEKIGSKYRYASPFQPMPSPDTPTHTGAKIVDGKVYVNNGFWDTYRTTWPAYSFLTPGQAGEMVDGFVQQYKDGGWTSRWSSPGYADLMTGTSSDVAFADAYVKGVDFDAKAAYDAAVKNATVVPPSSGVGRKGMATSPFLGYTSTDTSEGLSWAMEGYNNDYGIARMGQALYKKTGKKRYKEEAAYFLNRAQDYVKLFDGKAGFFQGRDGKGDWRVDSATYDPRVWGYDYTETNGWGYAFTAPQDSRGLANLYGGRGALAKKLDTYFATPETASPDFVGSYGGVIHEMTEARDVRMGMYGHSNQVAHHVNYMYDAAGRPWKTQANVREVLSRLYTGSEIGQGYHGDEDNGEQSAWYLFSALGFYPLVMGSGEYAIGSPLFTKATVHLENGRDLVVKAPKNSAKNVYVQGLKVNGKKWTSTSLPHSLIAKGGVLAFDMGAKPSSWGSGGGAGPVSITKGDQVPSPRADAIKGGGALFDDTSATSATVTSVELPVAARTKAVQYTLTSSSDHTAAPAGWVLEASADGTHWTTVDRRTDESFTWDRQTRVFSIAHPGKYAHYRLVPTAEATLAEVELLS | failed
MQHPRQGPPSRHTRRSLGRSLALTMTAVLGAAGLALSPAASADSGPTTADPTEAHGLKGEYYTQSAPGAFDFAELKATGFDPGLDFDSLESRLSAATGRADDVSVRWTGEVVPEKSGPTTFSITGDNGFRLWVDGKLTIDHWVDDWDREQTSQPVDLTAGRAYDIKVEYFEHFGGSNLHLRWTPPGGSKSAVPQSAFRLPDGFDYNGALSATVLGDGRTVRLDFPQALASAPATVLDHLTVTSGGKWPLSSVKTDPSDARALLVGLGEPVVGNKAGTAKGGVNVTYDGKGALADTSGTPVKAFWSSGPNKSTYELRTKWADQVGPKNALPEYPRPQLTRKAWQNLNGTWQFAGAKAGEEPPTGRTLAERILVPYPVESQLSGIERHEDRMWYRRTFTVPADWKVGHGKRLRLNFGAVDWQSEVYVNGTKVAEHKGGYDKFSADVTDALKPGRTQELIVGVYDPTDAQGGENPPLGKQRLDPSGIWYTPSSGIWQTVWMEPVAADHVDTLKLTPDVETSTLTVEPKGVRDGLAVTATAYDGKKKVATVRGRTGTPLTLKLAEPRLWSPDDPFLYDLKVDVGADRVGSYFGMRSIAVEKVDGTPRTVLNGKPVFMMATLDQGFWPDGLHTAPTDDALAHDLKMHKQMGFNSVRKHIKVEPDRWFYWADRLGLLVWQDMPAMTAGVNPNAASRAEYEREMKQLIDEHISSPSVVMWVTFNEGWGQYDEARIADQAKAWDPTRLVNSMSGLNLGVDGGTGDVMDEHGYPSPALPPHPDGRRALVSGEYGGLGLGVPGHAWSVQMSYVDVDPAAYTDTYLARLDEVRRLACRGGNGAVYTQISDVEGELNGLMTYDRKIVKPDVQRLRTAHEALIEAVAQSTLPCATS | failed
MQHSTLEPSTSLDVPSCIPRVSRYPRVKDVIARKYRLVVKTIGYIGWSLFWLLIWDVLVTIDFMLFLNSKFTLPLIPLTLLGSALVVLVSFRNSSAYSRWWEARTLWGALVNSSRSFARQTLTLIDDPDDGLNPVKATLLRRHIAYVNCLAAHLKGESCPEELMAFIPPAEFERRNRSNNFANDILGGSAALLAREYQAGRLDSIRLARLESTLVDLSNAQGGMERIANTPLPYPYVYFPRLFITLFCLIVPVGLVESLGWFTPLASTVVGFMLLAIERIGTDLQSPFRFSEHQIQMDTICETIERNLESMQREAQCAEAVDA | failed
MQHYFYYIHSKHITPCFIFVDDVLSCLQRLNYQHLPAVSWSCFVSDQIIARVSQSLAKEQSLESLVRQLLEMLEMVTDMESTYLTKVDVEARLQHIMFARNSQKMHIPENFTVSWDYSLCKRAIDENCFFSDEVPDRWGDCIAARNLGITTFLSTPIHLPDGSFYGTLCAASSEKRQWSERAEQVLQLFAGLIAQYIQKEALVEQLREANAALIAQSYTDSLTGLPNRRAIFENLTTLFSLARHLNHKIMIAFIDLDNFKLINDRFGHNSGDLFLIQVGERLNTLQQNGEVIGRLGGDEFLVVSLNNENADISSLRERIQQQIRGEYHLGDVDLYYPGASLGIVEVDPETTDADSALHAADIAMYQEKKHKQKTPFVTHSALHS | failed
MQIGKVTGSLWATRKDEKLNGLKLLLVEITDEVEDKRHSIVAADNAGAGNGDLVLVTTGSAARASTGDNTIPVDACIVGIIDSVERYGLEHHHHHH | failed
MQIGPGSATRLEFRRHFAATPEQLWAALTSPALLPAWLFARGWPMTECVFEPHKGGLIRQVWTGPEGRTRGLTGRVILAEPPHRLIHSELYDEDWTGGETLVTLQLLPVEGGTELAMAVDYATPEARDAVAASAMATEMEEAYRHLDVMLAALEHHHHHH | not failed
MQIKAGLIWMNGAFVPQEEAKTSVLSHALHYGTSVFEGIRAYETAKGPAIFRLKEHVKRFYNSAKVLRMEIPFAPEELEEAIKEVVRRNGYRSCYIRPLAWMGAKALGVNPLPNNPAEVMVAAWEWGAYLGEEAVRKGARLITSSWARFPANVMPGKAKVGGNYVNSALAKMEAVAAGADEALLLDEEGYVAEGSGENLFFVRDGVIYALEHSVNLEGITRDSVIRIAKDLGYEVQVVRATRDQLYMADEVFMTGTAAEVTPVSMIDWRPIGKGTAGPVALRLREVYLEAVTGRRPEYEGWLTYVNGQ | not failed
MQINGKAPRNKDLEPHSFELWLNAAKTNLDKYEMALIITATLGLRRGEVMGLRNESIKISHDQINDADVAQISIDMQRNTNELNGGPLKTKSSYRTIWAFGKTVDHLKYAMITADNLRQRNNIQAEKHWLWLNNDGNPLHPTHLNRLMRRVSNRSGVEVYPHLLRHYFATQAIAANKPQIDVMHYLGHKNLQMTADYTRSTKAASLNVFNSIDKFLLEHHHHHH | not failed
MQISDIEVFAAIASSRSLSEAARRLGLSPMAISRRLAALENDLGVRLFHRTTRSVSLTPEGEVFLPHAKTILEASEAARTTLKADAGSASGVLRVTAPSVFGQTVIMPLLPALMLENPALSIDLTLSDSIVDIAGLGIDVAIRIATIRDSALVARSLAPNPRVVCVSPDYLARHGKPTLLEELRHHPCIALHAMPWWPFTRNGEPITIRAQGPFSANSVEAVRTACKQGMGLAMLTYWDVRQEINEGSLQQVDFEDAMPEQLSVTAVLPTRQRVPHRVRLFIDRLEAALKSKAGAAGVTL | failed
MQIYQLSGRNVEVTEPMREYVEEKLSRLDRYTDQITDARVTLTVRDVRNNERRNRVEVQLNVPGGIIRAEEHHADMYAAIDKASDVLERQLRKFKTRYMKQRQEGRPEPLPGPAEAEVNAQGSGAAMDDVSEFHPEIVRQKRFELRPMSAEDAVVQMEALGHDFYVFQDLQGQTGVVYRRRDGHYGLIGSS | failed
